How the values were obtained:
Assay type in all cases: biochemical, Streptomyces coelicolor
[1] = substrate: CCCC(=O)Oc1ccc([N+](=O)[O-])cc1; assay: purified protein; details: 50 mM Tris-HCl pH 8.5, 0.1% Triton X-100, 35°C, fitted below substrate-inhibiting concentrations
[2] = substrate: CC(=O)Oc1ccc([N+](=O)[O-])cc1; assay: purified protein; details: 50 mM Tris-HCl pH 8.5, 0.1% Triton X-100, 35°C, fitted below substrate-inhibiting concentrations
[3] = substrate: CCCCCC(=O)Oc1ccc([N+](=O)[O-])cc1; assay: purified protein; details: 50 mM Tris-HCl pH 8.5, 0.1% Triton X-100, 35°C, fitted below substrate-inhibiting concentrations
[4] = substrate: CCCCC(=O)Oc1ccc([N+](=O)[O-])cc1; assay: purified protein; details: 50 mM Tris-HCl pH 8.5, 0.1% Triton X-100, 35°C, fitted below substrate-inhibiting concentrations
[5] = substrate: CCCCCCCC(=O)Oc1ccc([N+](=O)[O-])cc1; assay: purified protein; details: 50 mM Tris-HCl pH 8.5, 0.1% Triton X-100, 35°C, fitted below substrate-inhibiting concentrations
[6] = substrate: CC(=O)OCC(COC(C)=O)OC(C)=O; assay: pH-stat titration of released fatty acid; details: 5 mM Tris-HCl pH 8.5, 1% arabic gum emulsion, 35°C
From the text: (§1) pH-stat titration of released fatty acid on EstC

[7] = substrate: CCCC(=O)OCC(COC(=O)CCC)OC(=O)CCC; assay: pH-stat titration of released fatty acid; details: 5 mM Tris-HCl pH 8.5, 1% arabic gum emulsion, 35°C
From the text: as §1

B1: EstC (Streptomyces coelicolor A3(2)) (protein)
chain: MSRNAAFSPPPSARAYRLRTARGEFAVVDSPAAAGVAPRGVVMMLPGFTGSKEDFTLLHRPLGARGYRTVAVDGRGQYESDGPEHDESAYARPELARDVLAQAAALGTRVHLVGHSLGGQIARAAVLLDPAPFLSLTLMSSGPARISESQRQRVKLLRDALDTMTMAEVWEVMQAMGPPEEAGAPAPAHGPEDRVRLRDRWLGTRPAQLLATGGQLCTEPDRVAELAAVPLPFHVLSGTYDDTWPVPLLDEMALRLDARRTVVAGAEHSPNTDQPLPTARALADFWDDHPVPPRPYVR
notes: full-length ORF, no signal peptide, N-terminal His-tag (pET16b) kept, E. coli BL21(DE3), IMAC; 34665 Da with tag without initiator Met
Q: Which results are given for B1?
A: Km [1]: 0.84 ± 0.05 mM; kcat [1]: 124 ± 2 s⁻¹; kcat/Km [1]: 148000 ± 10000 M⁻¹ s⁻¹; Km [2]: 2.9 ± 0.8 mM; kcat [2]: 451 ± 10 s⁻¹; kcat/Km [2]: 156000 ± 41000 M⁻¹ s⁻¹; Km [3]: 0.071 ± 0.004 mM; kcat [3]: 41 ± 1 s⁻¹; kcat/Km [3]: 578000 ± 36000 M⁻¹ s⁻¹; Km [4]: 0.27 ± 0.03 mM; kcat [4]: 199 ± 6 s⁻¹; kcat/Km [4]: 737000 ± 77000 M⁻¹ s⁻¹; Km [5]: 0.11 ± 0.018 mM; kcat [5]: 58 ± 3 s⁻¹; kcat/Km [5]: 527000 ± 90000 M⁻¹ s⁻¹; Km [6]: 90 ± 1 mM; kcat [6]: 151 ± 2 s⁻¹; kcat/Km [6]: 1700 ± 30 M⁻¹ s⁻¹; Km [7]: 0.62 ± 0.3 mM; kcat [7]: 14 ± 1 s⁻¹; kcat/Km [7]: 23000 ± 12000 M⁻¹ s⁻¹

Source: publication PMC3292560, “Isolation and Characterization of EstC, a New Cold-Active Esterase from Streptomyces coelicolor A3(2)” (PLoS ONE, 2012)
